Experimental data: patent publication US20080293922A1 (POSCO, published 2008)

Biological target: T1, neuropilin-1 on MDA-MB-231 tumor cells (UniProt O14786 22-923, limits assumed)
T1 construct: whole, on cells
Experiment: Binding of VEGF to MDA-MB-231 cells with or without Aβ peptides (data not shown)

- binding result: binds
B1: Vascular endothelial growth factor VEGF165 (ligand)
chain: APMAEGGGQNHHEVVKFMDVYQRSYCHPIETLVDIFQEYPDEIEYIFKPSCVPLMRCGGCCNDEGLECVPTEESNITMQIMRIKPHQGQHIGEMSFLQHNKCECRPKKDRARQENPCGPCSERRKHLFVQDPQTCKCSCKNTDSRCKARQLELNERTCRCDKPRR
modifications: 125I label in the radioligand, co-aggregation, dissociation and trapping assays (position not given)
notes: 125I-VEGF was bought from Amersham; also called 125I-VEGF; 125I-VEGF165
